In the DeepSol protein solubility set:

Experiment: soluble on expression in E. coli; label from the status in PepcDB or PDB records

| Sequence | soluble on expression in E. coli |
| --- | --- |
| MNLTQMLPDLDDVPESLLDEAIFDSFLSWTRSKDLALYPAQEEAALGILAGDNVILATPTGSGKSMVAIAAHFIAMARGQRSFYTAPIKALVNEKFFALCDIFGPESVGMMTGDATVNGSAPIICATAEIVANIALRDGTDADIDQVVMDEFHYYSEPGRGWAWQVPLLELPRTQFLLMSATLGDTTFIQKDLSDRTGRTTNLVAGATRPVPLQFSYVYTPVHETIQDLLDTNNAPIYVVHFTQREAIERAQSLTSMTVIDSETKEKIATEIGNFKFTTTFGHTLSKLLRKGIGVHHAGMLPKYRRLVEKLSQTGLLKIICGTDTLGVGINVPIRTVLFTGLAKFDGSKQRILASREFHQIAGRAGRAGYDTVGNVVIEAPEHEIENWRLRQRAGSDLKKLKKLRKKSARDGEVTWGEKTYERLSEAEPENLQSQFRISNSMLLNVIARSGDAYVHLKHLLRTNHDTRDKQNKDILTALELFRGLVAAGIVEKLDSPDSTGRKYVITEDLRRDFALNQPLAPFALAALEILDKESTSYALDVISVFESILEDPRVVLIAQQKQARGEEIAALKAEGVEYTERMNIVEEISWPKPLEEILEPAFDTYCSGHPWAKEFTLSPKSIVRDMIEHGMTFSDFIATYGLSRSEGVVLHYLTDAWKTLSHSVPTEYVSDELEEIIEWLGELVRQVDSSLIDEWANMADPDAPISQDTVDQQRAFGVEDPNAITANSRAFAVMVRNLMFRMVQLFAAEEEEKLEALTDYLDEQPDFSEALDVYFDEYSDLDVGPDARGREYFLLKKDGRIWSVRQIIKDPNDDRAFSFAATVDLNASDAADEVRFAKFSIDS | not soluble |
| MNLVELGSKTAKDGFKNEKDIADRFENWKENSEAQDWLVTMGHNLDEIKSVKAVVLSGYKSDINVQVLVFYKDALDIHNIQVKLVSNKRGFNQIDKHWLAHYQEMWKFDDNLLRILRHFTGELPPYHSNTKDKRRMFMTEFSQEEQNIVLNWLEKNRVLVLTDILRGRGDFAAEWVLVAQKVSNNARWILRNINEVLQHYGSGDISLSPRGSINFGRVTIQRKGGDNGRETANMLQFKIDPTELFDI | soluble |
| MNLVSLRDSPQYLERAIAYFQSKWGNENTKMVYDNCFRHSLNAENPIPQWYLLMNGDEIIGCAGLTSNDFNSRADLYPWLVALFIEEKYRGNHYANLLIEQAKKDTLKFGFSKLYLSTSHTSYYERLGFTYIGDCWHPWGESSRVYEIILKF | not soluble |
| MNMLEKVQSQLEHLSKSERKVADVILAAPGRSIHLSIAMLAQEANVSEPTVNRFCRSMNTRGFPDFKLHLAQSLANGTPYVNRNVDEDDSVEAYTGKIFESAMASLDHVRQSLDKSAVNRAVDLLTQAKKIAFFGLGSSAAVAHDAMNKFFRFNVPVIYSDDIVLQRMSCMNCSDDDVVVLISHTGRTKSLVELAQLARENDAMVIALTSAGTPLAREATLAITLDVPEDTDIYMPMVSRLAQLTVIDVLATGFTLRRGAKFRDNLKRVKEALKESRFDKELLIKSDDR | not soluble |
| MNMSQNLDFIHSAQRTIGLERDAVDSLLARIGDDFVKACELLLAGKGRVVVVGMGKSGHVGKKIAATLASTGTPSFFVHPAEASHGDMGMITKDDVVLALSNSGSTAEIVTLLPLIKRLGITLISMTGNPESPLAKAAEVNLDASVGQEACPLNLAPTSSTTVTLVLGDALAIALLEARGFTAEDFAFSHPGGALGRRLLLKVEDVMHVGEGLPQVLLGTSLTGALMEMTRKGLGMTVVLDEHGKLAGIFTDGDLRRALDRGIDVRQVTIDQVMTVHGKTVRAEILAAEALKIMEDNKIGALVVVDADDRPVGALNMHDLLRAGVM | not soluble |
| MNNDNKRSAGGLGLVGDIGGTNARFALWRGQRLESIEVLACADYPRPELAVRDYLARIGESVANIDSVCLACAGPVGAADFRFTNNHWVINRAAFREELGLDHLLLVNDFSTMAWAASRLGADELVQVRAGSAQADRARLIIGPGTGLGVGSLLPLGGGRWEVLPCEGGHVDLPVTSPRDFALWQGLQARYGHVSAERALSGNGLLALYEISCALDGVAVRASSAAEVGALAMAGDAQADAVLEHFFLWLARVAGNAVLTVGALGGVYITGGIVPRFLERFIASGFAEAFASRGKTSGAYLQDVPVWVMTAEHPGLLGAGVALQQALDAEG | not soluble |
| MNNLYPYGAPDSNLYARKQEEYDQQIAEAILAGIKREATAIELYRRLADEAPSEQHQHDIRQALENKQASLTQFTNAYRILTGQQPQLEVDDVSFYRFHEGLQKAYEIEVEGYEEYERSSALTENPHVQHAFWTALNTEYENTTRLYRSLHEEADHRVTDHGPRPFVVNIEDETKRNRAFRRALWTGDHLQVTLMSIQVGEDIGLEIHPHLDQFLRVEEGRGLVQMGHRQDNLHFQEEVFDDYAILIPAGTWHNVRNTGNRPLKLYSIYAPPQHPHGTVHETKAIAMAAEEHHHL | soluble |
| MNNNELYVSLDLGTSNTKVIVGEMTGDSLNIIGVGNVPSEGLKKGSIVDIDETVHSIRKAFDQAERMVGFPLRKAIVGVNGNYINIQDTNGVVAVSSENKEIQVEDVRRVMAAAQVVSVPHEQLIVDVIPKQFIVDGRDEITDPKKMLGVRLEVEGTLITGSKTILHNLLRCVERAGIEITDICLQPLAAGSAALSKDEKNLGVALIDIGGGSTTIAVFQNGHLTSTRVIPLGGENITKDISIGLRTSTEEAERVKKQLGHAYYDEASEDEIFEVTVIGTNQKQTFTQQEAANIIEARVEEILEIVSEELRSMGITDLPGGFVLTGGQAAMPGVMSLAQDVLQNNVRVQGPNYIGVRDPQYMTGVGLIQFACRNARIQGRKIGFKMPEEAIQEIAVSSSEEQEQHHHQNEVQQRPKGKQKTQAEHNKQSKMKKLLSMFWE | not soluble |
| MNNSEGLKSFQQSLADLPQWVSERLLQQINQLTNYEPVIGIMGKTGVGKSSLCNALFAGDISPVSDVAACTREPLRFRLQVGDRYITLMDLPGVGESGARDTEYAALYREQLPRLDLVLWLIKADDRALTVDEHFYHQVIGEVYRHKVLFVISQSDKAEPTSGGGQLSTAQKQNISRKICLLHELFQPVHPVCAVSVRLQWGLKVMAERMIKCLPREATSPVVSQLHPSFRTTVVREQARSDFGETVGAVLDSISAFPLIPAPVRAVIQAVRTTVVSVARAVWDFFF | soluble |
| MNNSLSDKYNSSSTTLCSSVHAESCPTDTEDAIIRNIKLPGFRGNISRALSQKSNSPSGCRTPTPKTAPPSYEQFQVLRRNSMKSSVQPQRNGILSPAPPVPTSSRANTITVNGAHVQQAMNRIDMSTDSANTILRSPYSTRSDSITSVDSGQCSGDQIERRSNCSTRQESKDDDDTGMPSYARMASTMDHVLRTSSALYTLLSSALDPATCRDLLAKSSVFIQLLESSPCTNYLPKTEMARLKMNVQELQKNRDKGIIDMNNMTNFFAILLRKSIESVLLVFVRIISKNLCESNGKDRLTPICLEHLIHICLFGDELCIEAIQKGCISSVIRIMKNDQPQENTLRFLLRTLAVLCGVSKGALALLTQGGLDLVIDRLLSISSSICSVEAAGILTQLTNPQSAFIRLNHVEPIISRLLDLIDQCKSGDSLLLATAALNNVTLQNPNGVDIMYRNNSIRRLISAYNRENCATVFVQEQIVTAFSRLAARHLDHQMVDQNAIPVLLEFLSLTHPIHADYCRRIRYKAAVCIGTLANSEIGLKALYGNNAYAILSNVLYDDNNSSNPFNMICNNIRTKLESKYQSESAV | not soluble |
| MNNTVKTDGDSVSGRDLPITKISEDRFERSAYSAQLANIICDVAPWGASTVFSLTGQWGSGKTSLVNLIRSEESLSNEKWTIVDFNPWVASDPQSLIEEFYRVIVGTVPDDKTGQKIKTVLQKTFSTIGSIAGGVGGFGVLEALALSKGVDAANAVYKTWKQEQDSWPTLYTRAANHFKDLNKRILIVVDDIDRLHTDELALLMKVIRLLGRFPQVNYLLVYEEESLLTTLARSTAVGGSEDDALRFMEKIVQYPFDVPPLTSFQIEKELSALFDKLFQGVSLSGDPEDFALVKSRMFDVWEKTLVTPRLLHRFAALLTNWTRIYGSGEVNGVDLTILATIRIVFPSVYKRLSRAKEVLLQGGRTTGLEHHHHHH | soluble |
| MNQLCRAVPSLRSAVRLASSGRLYTKKHEWVLVENGVGTVGITDFATEQLGDVVFIELPDEGTEISKGDSTGAVESVKAASDIYAPISGTVTQKNVKLEEEAGLINKSPFEKGWLYKLKVKSADELEKLLNEEQYAKFKKDEEAAH | not soluble |
| MNQNDNRIFRKEDLDWKELETIGIHKEELEKSGDMELLLQGEETETVPLKIRTSALRLTMDATLRITVGTDGKPVMEINGISPEAESEAGG | not soluble |
